3 molecules from US20180057553A1, “CONJUGATE AND USE THEREOF” (The University of Tokyo, priority 2015, published 2018) can be followed below.

Test [1] in a line: Adsorption of intelectin in human serum to diol modified silica gel column (Example 14). The test is classed as binding. The protocol: 40 microliters of 50% fresh human serum diluted with 0.1% Tween 20-150 mM NaCl—50 mM phosphate buffer (pH 7.3) added with or not added with 10 mM EDTA was added to a gel filtration chromatography column (TSKgel G3000 SWXL Tosoh Corporation) utilizing diol-modified silica gel as the carrier, and gel filtration was performed using 0.1% Tween 20—150 mM NaCl—50 mM phosphate buffer (pH 7.3) as solvent. Subsequently, the intelectin concentration in the elution fraction was measured using ELISA.

Test [2] can be described thus: Binding of intelectin to beads having a diol group (SDS-PAGE, Examples 1 and 10). Conditions: 18 hours at 25 deg C; eluted with 15% glycerol; compared with polystyrene or hydroxy beads. The protocol:
Beads having a diol group on the surface and beads not having a diol group on the surface were prepared. Beads obtained by conjugating 3-amino-1-propanediol bound to the surface of polystyrene beads via an amino group (diol beads), and beads obtained by alkaline hydrolyzing the epoxy group of Sepharose beads with 1,4-bis(2,3-epoxypropyl)butane introduced (epoxy-activated Sepharose 6B (GE Healthcare Biosciences)) (diol Sepharose beads) were used as the beads having a diol group on the surface. Polystyrene beads and beads obtained by conjugating 3-amino-1-propanol to polystyrene beads (hydroxy beads) were used as the beads not having a diol group on the surface.
Each kind of beads were added to 500 microliters of a medium containing intelectin or a medium not containing intelectin, and were stirred for 18 hours at 25 deg C. Recombinant human intelectin-1 was used as intelectin. Subsequently, the beads were collected by centrifugation and washed once with buffer, and the samples was eluted with buffer containing 15% glycerol. Samples were separated by SDS polyacrylamide gel electrophoresis (SDS-PAGE), and proteins were stained using Coomassie Brilliant Blue.
Beads having a diol group on the surface and beads not having a diol group on the surface were prepared. Diol beads, diol Sepharose brads, and hydroxy beads, that were used in Example 1, were used as the beads.
First, beads were added to 5 mL of a medium containing recombinant mouse intelectin-1 or 1 mL of a medium containing C31, 48S mutant of human intelectin-1, and the samples were stirred for 18 hours at 25 deg C.
Subsequently, the beads were collected by centrifugation and washed once with buffer, and the samples were eluted with buffer containing 15% glycerol. The samples were then separated by SDS-polyacrylamide gel electrophoresis (SDS-PAGE), and proteins were stained with Coomassie Brilliant Blue.

B1: intelectin: a kind of lectin; amino acid sequence of human intelectin-1 is SEQ ID NO: 1; wild type forms a trimer (protein, listed as Homo sapiens)
chain: MNQLSFLLFLIATTRGWSTDEANTYFKEWTCSSSPSLPRSCKEIKDECPSAFDGLYFLRTENGVIYQTFCDMTSGGGGWTLVASVHENDMRGKCTVGDRWSSQQGSKADYPEGDGNWANYNTFGSAEAATSDDYKNPGYYDIQAKDLGIWHVPNKSPMQHWRNSSLLRYRTDTGFLQTLGHNLFGIYQKYPVKYGEGKCWTDNGPVIPVVYDFGDAQKTASYYSPYGQREFTAGFVQFRVFNNERAANALCAGMRVTGCNTEHHCIGGGGYFPEASPQQCGDFSGFDWSGYGTHVGYSSSREITEAAVLLFYR
modifications: human intelectin-1
notes: a kind of lectin; wild type forms a trimer
With B1, the “binding of serum intelectin to the column” value in test [1] (human serum added with 10 mM EDTA) was “did not bind to the column”; in test [1] (human serum not added with EDTA), “adsorbed to the column”. Also, the “binding to beads having a diol group (SDS-PAGE)” value (“binding … (SDS-PAGE)” below) in test [2] is “selectively bind to diol beads and diol Sepharose beads”.

B2: C31, 48S mutant of human intelectin-1: cysteine residues at position 31 and 48 substituted with serine; produced as a monomer; SEQ ID NO: 9 (protein, listed as Homo sapiens)
chain: MNQLSFLLFLIATTRGWSTDEANTYFKEWTSSSSPSLPRSCKEIKDESPSAFDGLYFLRTENGVIYQTFCDMTSGGGGWTLVASVHENDMRGKCTVGDRWSSQQGSKADYPEGDGNWANYNTFGSAEAATSDDYKNPGYYDIQAKDLGIWHVPNKSPMQHWRNSSLLRYRTDTGFLQTLGHNLFGIYQKYPVKYGEGKCWTDNGPVIPVVYDFGDAQKTASYYSPYGQREFTAGFVQFRVFNNERAANALCAGMRVTGCNTEHHCIGGGGYFPEASPQQCGDFSGFDWSGYGTHVGYSSSREITEAAVLLFYR
modifications: human intelectin-1 C31S, C48S variant
As to B2, the “binding … (SDS-PAGE)” value in test [2] was “specifically bind to diol beads and diol Sepharose beads”.

B3: mouse intelectin-1: produced as a monomer; 51 amino acid residues different from human intelectin-1; SEQ ID NO: 7 (protein, listed as Mus musculus)
chain: MTQLGFLLFIMVATRGCSAAEENLDTNRWGNSFFSSLPRSCKEIKQEHTKAQDGLYFLRTKNGVIYQTFCDMTTAGGGWTLVASVHENNMRGKCTVGDRWSSQQGNRADYPEGDGNWANYNTFGSAEAATSDDYKNPGYFDIQAENLGIWHVPNKSPLHNWRKSSLLRYRTFTGFLQHLGHNLFGLYKKYPVKYGEGKCWTDNGPALPVVYDFGDARKTASYYSPSGQREFTAGYVQFRVFNNERAASALCAGVRVTGCNTEHHCIGGGGFFPEGNPVQCGDFASFDWDGYGTHNGYSSSRKITEAAVLLFYR
modifications: mouse intelectin-1
As to B3, the “binding … (SDS-PAGE)” value in test [2] was “specifically bind to diol beads and diol Sepharose beads”.
